The supplement of paper PMC7877785
± gives the uncertainty stated by the source.

Assay: self-splicing fitness, log relative to wild type (ln ratio); higher = more splicing; Tetrahymena group I intron in knt gene, E. coli kanamycin selection, DiMSum; sequences stand for … in CUCUCU…GGAGGGAAAAGUUAUCAGGCAUGCACCUGGUAGCUAGUCUUUAAACCAAUAGAUUGCAUCGGUUUAAAAGGCAAGACCGUCAAAUUGCGGGAAAGGGGUCAACAGCCGUUCAGUACCAAGUCUCAGGGGAAACUUUGAGAUGGCCUUGCAAAGGGUAUGGUAAUAAGCUGACGGACAUGGUCCUAACCACGCAGCCAAGUCCUAAGUCAACAGAUCUUCUGUUGAUAUGGAUGCAGUUCACAGACUAAAUGUCGGUCGGGGAAGAUGUAUUCUUCUCAUAAGAUAUAGUCGGACCUCUCCUUAAUGGGAGCUAGCGGAUGAAGUGAUGCAACACUGGAGCCGCUGGGAACUAAUUUGUAUGCGAAAGUAUAUUGAUUAGUUUUGGAGUACUCGUGGUCG
In short: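 Fitness was computed with DiMSum as the error-weighted combination of replicate fold changes, kanamycin versus none, each normalised to wild type. The library randomised all eight intron nucleotides of the P1ex region, with the intron placed in the knt kanamycin-resistance gene on pET-22b(+) in E. coli BL21(DE3). Six replicate transformations were grown overnight at 37°C or 30°C on LB agar with or without 25 μg/mL kanamycin, plus 100 μg/mL carbenicillin, 50 μM IPTG and 0.2% rhamnose. Pooled colonies were amplicon-sequenced on an Illumina HiSeq 2500.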

Sequence	self-splicing fitness (ln) (30 °C)	self-splicing fitness (ln) (37 °C)
CAUCAGCAAUAUUACGAAAU	-4.26 ± 0.2	-2.66 ± 0.16
CAUCAGCAAUAUUACGAAUG	-3.18 ± 0.16	-2.05 ± 0.14
CAUCAGCAAUAUUACGACAA	-2.31 ± 0.24	-1.41 ± 0.21
CAUCAGCAAUAUUACGACGU	-0.965 ± 0.064	-0.79 ± 0.09
CAUCAGCAAUAUUACGAGAA	-2.12 ± 0.21	-2.09 ± 0.18
CAUCAGCAAUAUUACGAUCG	-0.307 ± 0.12	-0.125 ± 0.15
CAUCAGCAAUAUUACGAUUU	-0.551 ± 0.071	0.205 ± 0.1
CAUCAGCAAUAUUACGCAUC	-1.34 ± 0.13	-1.02 ± 0.15
CAUCAGCAAUAUUACGCCGC	-3.14 ± 0.36	–
CAUCAGCAAUAUUACGCGAG	0.128 ± 0.083	-0.05 ± 0.1
CAUCAGCAAUAUUACGCGCC	-2.74 ± 0.27	-1.05 ± 0.27
CAUCAGCAAUAUUACGCGGG	-2.04 ± 0.13	-0.735 ± 0.12
CAUCAGCAAUAUUACGCGUU	-2.17 ± 0.1	-1.54 ± 0.13
CAUCAGCAAUAUUACGGAAA	-2.66 ± 0.23	-0.167 ± 0.14
CAUCAGCAAUAUUACGGAAC	-2.6 ± 0.19	-2.54 ± 0.36
CAUCAGCAAUAUUACGGCAU	-2.85 ± 0.15	-1.66 ± 0.17
CAUCAGCAAUAUUACGGCCG	-0.131 ± 0.093	-0.0546 ± 0.14
CAUCAGCAAUAUUACGGCGU	-2.3 ± 0.14	-1.94 ± 0.17
CAUCAGCAAUAUUACGGUAC	-2.95 ± 0.17	-2.71 ± 0.18
CAUCAGCAAUAUUACGUACA	-2.24 ± 0.14	-1.92 ± 0.16
CAUCAGCAAUAUUACGUGAC	-3.66 ± 0.19	-1.2 ± 0.14
CAUCAGCAAUAUUACGUGUC	-3.93 ± 0.19	-1.08 ± 0.12
CAUCAGCAAUAUUACGUUGC	-3.81 ± 0.27	-2.84 ± 0.2
CAUCAGCAAUAUUACGUUUU	-2.67 ± 0.1	-1.8 ± 0.11
CAUGAGCAAUAUUACGCACU	–	-1.96 ± 0.24

Sequence	self-splicing fitness (ln) (30 °C)	self-splicing fitness (ln) (37 °C)
CAUGAGCAAUAUUACGCAGU	-4.2 ± 0.39	-2.63 ± 0.23
CAUGAGCAAUAUUACGCAUA	-2.29 ± 0.26	-1.78 ± 0.23
CAUGAGCAAUAUUACGCCGA	-2.14 ± 0.47	-2.48 ± 0.31
CAUGAGCAAUAUUACGCGAA	-3.03 ± 0.17	-1.57 ± 0.15
CAUGAGCAAUAUUACGCGGC	-2.22 ± 0.43	-2.58 ± 0.29
CAUGAGCAAUAUUACGCUUC	–	-2.38 ± 0.32
CAUGAGCAAUAUUACGGGUA	-2.86 ± 0.28	-2.23 ± 0.28
CAUGAGCAAUAUUACGGUAC	-2.67 ± 0.41	-2.32 ± 0.34
CAUGAGCAAUAUUACGUAAG	-0.906 ± 0.096	-0.568 ± 0.11
CAUGAGCAAUAUUACGUGAU	-2.58 ± 0.14	-2.68 ± 0.2
CAUGAGCAAUAUUACGUGCC	-3.97 ± 0.33	-2.47 ± 0.32
CAUGAGCAAUAUUACGUUAC	-3.24 ± 0.15	-3.39 ± 0.2
CAUUAGCAAUAUUACGAAAA	-2.21 ± 0.46	-1.46 ± 0.45
CAUUAGCAAUAUUACGAACG	0.479 ± 0.09	0.736 ± 0.099
CAUUAGCAAUAUUACGAAGU	–	-1.37 ± 0.44
CAUUAGCAAUAUUACGAGCC	-2.89 ± 0.23	-2.08 ± 0.27
CAUUAGCAAUAUUACGAUCC	–	0.538 ± 0.22
CAUUAGCAAUAUUACGCACC	-2.94 ± 0.23	-1.53 ± 0.19
CAUUAGCAAUAUUACGCCAA	-2.88 ± 0.33	-2.63 ± 0.48
CAUUAGCAAUAUUACGCCCG	0.404 ± 0.13	0.579 ± 0.17
CAUUAGCAAUAUUACGCCGA	-2.32 ± 0.19	-2.18 ± 0.2
CAUUAGCAAUAUUACGCCGC	-1.43 ± 0.29	–
CAUUAGCAAUAUUACGCGCA	-1.39 ± 0.16	-1.52 ± 0.17
CAUUAGCAAUAUUACGCGUU	-2.44 ± 0.12	-1.48 ± 0.17
CAUUAGCAAUAUUACGGAAA	-3.86 ± 0.47	-2.52 ± 0.3

Sequence	self-splicing fitness (ln) (30 °C)	self-splicing fitness (ln) (37 °C)
CAUUAGCAAUAUUACGGAGA	-3.12 ± 0.41	-2.39 ± 0.3
CAUUAGCAAUAUUACGGAUA	-2.16 ± 0.12	-1.42 ± 0.13
CAUUAGCAAUAUUACGGCGA	-2.09 ± 0.3	-3.32 ± 0.47
CAUUAGCAAUAUUACGGCGG	0.0154 ± 0.093	0.252 ± 0.12
CAUUAGCAAUAUUACGGGCG	-0.183 ± 0.092	0.436 ± 0.098
CAUUAGCAAUAUUACGGGCU	-1.68 ± 0.2	-2.7 ± 0.3
CAUUAGCAAUAUUACGGGGC	-3.44 ± 0.23	-1.95 ± 0.23
CAUUAGCAAUAUUACGGUCA	-2.02 ± 0.3	-1.63 ± 0.3
CAUUAGCAAUAUUACGGUCU	-3.48 ± 0.31	-2.22 ± 0.29
CAUUAGCAAUAUUACGUAGC	-3.25 ± 0.19	-2.4 ± 0.17
CAUUAGCAAUAUUACGUAUA	-2.34 ± 0.14	-0.81 ± 0.12
CAUUAGCAAUAUUACGUCGG	-0.0974 ± 0.13	0.403 ± 0.14
CAUUAGCAAUAUUACGUCUC	-3.28 ± 0.27	-1.76 ± 0.23
CAUUAGCAAUAUUACGUGUG	-2.91 ± 0.19	-3.15 ± 0.19
CCAAAGCAAUAUUACGAAUU	-3.58 ± 0.15	-3.46 ± 0.19
CCAAAGCAAUAUUACGACUA	-2.34 ± 0.23	-2.7 ± 0.29
CCAAAGCAAUAUUACGACUG	-0.588 ± 0.071	-0.0799 ± 0.091
CCAAAGCAAUAUUACGAUUC	-3 ± 0.31	-1.71 ± 0.34
CCAAAGCAAUAUUACGAUUU	-3.85 ± 0.2	-1.98 ± 0.19
CCAAAGCAAUAUUACGCUAA	-2.86 ± 0.23	-2.7 ± 0.3
CCAAAGCAAUAUUACGGAAU	-4.11 ± 0.39	-2.95 ± 0.22
CCAAAGCAAUAUUACGGGGA	-3.41 ± 0.16	-2.93 ± 0.17
CCAAAGCAAUAUUACGGGUU	-2.96 ± 0.15	-2.5 ± 0.16
CCAAAGCAAUAUUACGGUAU	-3.41 ± 0.18	-2.08 ± 0.25
CCAAAGCAAUAUUACGGUCG	-0.306 ± 0.066	-0.674 ± 0.077

Sequence	self-splicing fitness (ln) (30 °C)	self-splicing fitness (ln) (37 °C)
CCAAAGCAAUAUUACGGUGA	-3.77 ± 0.25	-4.04 ± 0.34
CCAAAGCAAUAUUACGGUGC	-4.01 ± 0.16	-2.19 ± 0.13
CCAAAGCAAUAUUACGUAAC	-4.73 ± 0.27	-2.72 ± 0.28
CCAAAGCAAUAUUACGUCCG	-0.225 ± 0.11	-0.354 ± 0.14
CCAAAGCAAUAUUACGUCUC	-3.08 ± 0.13	-2.89 ± 0.092
CCAAAGCAAUAUUACGUGUA	-3.72 ± 0.14	-1.97 ± 0.12
CCAAAGCAAUAUUACGUGUU	-3.49 ± 0.11	-1.56 ± 0.09
CCAAAGCAAUAUUACGUUAA	-3.93 ± 0.26	-1.97 ± 0.22
CCAAAGCAAUAUUACGUUAG	-1.89 ± 0.071	-0.652 ± 0.073
CCAAAGCAAUAUUACGUUCG	-0.496 ± 0.055	0.165 ± 0.069
CCAAAGCAAUAUUACGUUUG	-2.93 ± 0.089	-1.43 ± 0.086
CCACAGCAAUAUUACGAAGA	-1.5 ± 0.15	-2.55 ± 0.24
CCACAGCAAUAUUACGAAGC	-3.85 ± 0.2	-2.3 ± 0.15
CCACAGCAAUAUUACGAAGG	-3.62 ± 0.13	-2.92 ± 0.16
CCACAGCAAUAUUACGACAG	-1.06 ± 0.083	-0.0398 ± 0.088
CCACAGCAAUAUUACGACUC	-2.46 ± 0.18	-2.76 ± 0.3
CCACAGCAAUAUUACGAGCU	-3.67 ± 0.15	-2.4 ± 0.15
CCACAGCAAUAUUACGAGUU	-2.76 ± 0.09	-2.76 ± 0.12
CCACAGCAAUAUUACGCACA	-2.44 ± 0.15	-2.33 ± 0.25
CCACAGCAAUAUUACGCACG	-0.551 ± 0.063	-0.626 ± 0.093
CCACAGCAAUAUUACGCCUA	-2.47 ± 0.28	-2.79 ± 0.34
CCACAGCAAUAUUACGCUCA	-2.89 ± 0.21	-2.41 ± 0.27
